Measured values as given in the supplement of paper PMC7877785.
± gives the uncertainty stated by the source.

Assay: self-splicing fitness, log relative to wild type (ln ratio); higher = more splicing; Tetrahymena group I intron in knt gene, E. coli kanamycin selection, DiMSum; sequences stand for … in CUCUCU…GGAGGGAAAAGUUAUCAGGCAUGCACCUGGUAGCUAGUCUUUAAACCAAUAGAUUGCAUCGGUUUAAAAGGCAAGACCGUCAAAUUGCGGGAAAGGGGUCAACAGCCGUUCAGUACCAAGUCUCAGGGGAAACUUUGAGAUGGCCUUGCAAAGGGUAUGGUAAUAAGCUGACGGACAUGGUCCUAACCACGCAGCCAAGUCCUAAGUCAACAGAUCUUCUGUUGAUAUGGAUGCAGUUCACAGACUAAAUGUCGGUCGGGGAAGAUGUAUUCUUCUCAUAAGAUAUAGUCGGACCUCUCCUUAAUGGGAGCUAGCGGAUGAAGUGAUGCAACACUGGAGCCGCUGGGAACUAAUUUGUAUGCGAAAGUAUAUUGAUUAGUUUUGGAGUACUCGUGGUCG
Summary of the method: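 The eight P1ex-region nucleotides of an intron in the knt kanamycin-resistance gene on pET-22b(+) were all randomised and the library put into E. coli BL21(DE3). Six replicate transformations were grown overnight at 37°C or 30°C on LB agar with or without 25 μg/mL kanamycin, together with 100 μg/mL carbenicillin, 50 μM IPTG and 0.2% rhamnose. Colonies were pooled and amplicon-sequenced on an Illumina HiSeq 2500. Fitness from DiMSum is the error-weighted combination of wild-type-normalised replicate fold changes, kanamycin over none.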

| Sequence | self-splicing fitness (ln) (30 °C) | self-splicing fitness (ln) (37 °C) |
| --- | --- | --- |
| CGACAGCAAUAUUACGAUUU | -2.34 ± 0.075 | -1.26 ± 0.087 |
| AUAAAGCAAUAUUACGUACU | 0.123 ± 0.081 | 0.445 ± 0.095 |
| UCCCAGCAAUAUUACGCUUC | -2.73 ± 0.19 | -2.76 ± 0.48 |
| CGCCAGCAAUAUUACGUCUC | -4.51 ± 0.23 | -2.45 ± 0.16 |
| CGGUAGCAAUAUUACGGCGG | 0.494 ± 0.093 | 0.0118 ± 0.096 |
| GCUUAGCAAUAUUACGUCAU | -2.19 ± 0.14 | -0.965 ± 0.12 |
| GAGGAGCAAUAUUACGAUGG | -3.58 ± 0.2 | -2.44 ± 0.22 |
| ACAAAGCAAUAUUACGAGUG | -1.37 ± 0.068 | -0.772 ± 0.081 |
| GUCGAGCAAUAUUACGUAUC | -0.209 ± 0.13 | -1.42 ± 0.15 |
| UACGAGCAAUAUUACGAUUU | -2.88 ± 0.17 | -1.3 ± 0.16 |
| CUACAGCAAUAUUACGUAGC | -3.76 ± 0.26 | -2.54 ± 0.33 |
| ACCCAGCAAUAUUACGAUUC | -1.71 ± 0.046 | -0.7 ± 0.063 |
| CGAUAGCAAUAUUACGCUCG |  | -2.03 ± 0.47 |
| CGGUAGCAAUAUUACGCGGG | -2.49 ± 0.18 | -1.88 ± 0.24 |
| UCGAAGCAAUAUUACGUAGU | -2.53 ± 0.11 | -0.666 ± 0.11 |
| UAUCAGCAAUAUUACGUCGA | -1.16 ± 0.1 | 0.104 ± 0.12 |
| ACAUAGCAAUAUUACGGCGA | -0.475 ± 0.09 | -0.0687 ± 0.1 |
| AGAUAGCAAUAUUACGGGUA | -1.35 ± 0.11 | -1.8 ± 0.14 |
| CUGAAGCAAUAUUACGUAAA | -2.54 ± 0.33 | -1.7 ± 0.46 |
| GGCAAGCAAUAUUACGGGGC | -2.62 ± 0.42 | -1.5 ± 0.32 |
| UAUUAGCAAUAUUACGAUCG | -0.211 ± 0.12 | 0.607 ± 0.18 |
| UGGGAGCAAUAUUACGUAGC | -3.22 ± 0.27 |  |
| GCAAAGCAAUAUUACGUUUU | -2.95 ± 0.11 | -3 ± 0.18 |
| ACAAAGCAAUAUUACGGUUA | -1.58 ± 0.092 | -0.719 ± 0.078 |
| GACCAGCAAUAUUACGUAGU | -0.667 ± 0.061 | -0.248 ± 0.077 |
| AUUCAGCAAUAUUACGGAAA | -1.03 ± 0.12 | -0.365 ± 0.12 |

| Sequence | self-splicing fitness (ln) (30 °C) | self-splicing fitness (ln) (37 °C) |
| --- | --- | --- |
| UGGCAGCAAUAUUACGUAGG | -0.869 ± 0.092 | -0.975 ± 0.14 |
| CUCAAGCAAUAUUACGACAG | -1.19 ± 0.062 | -0.407 ± 0.082 |
| UAAUAGCAAUAUUACGUGCC | -3.27 ± 0.43 | -1.47 ± 0.31 |
| UCUUAGCAAUAUUACGCGCU | -3.3 ± 0.47 | -3.27 ± 0.39 |
| GUUAAGCAAUAUUACGUUGA | -3.87 ± 0.33 | -1.43 ± 0.25 |
| AUACAGCAAUAUUACGUUCG | -1.69 ± 0.071 | -1.15 ± 0.093 |
| UGCUAGCAAUAUUACGUGAA | -2.87 ± 0.14 | -0.167 ± 0.1 |
| GCAGAGCAAUAUUACGGGGU | -3.34 ± 0.23 | -3.16 ± 0.31 |
| GUGAAGCAAUAUUACGUCUG | -1.29 ± 0.12 | -0.0242 ± 0.2 |
| GACAAGCAAUAUUACGUAUA | -1.76 ± 0.15 | -1.79 ± 0.13 |
| CGGUAGCAAUAUUACGUGUU | -4.12 ± 0.28 | -3.09 ± 0.27 |
| AACGAGCAAUAUUACGCAAG | -3.43 ± 0.19 | -2.19 ± 0.19 |
| CUCGAGCAAUAUUACGGUAU | -2.54 ± 0.14 | -2.62 ± 0.21 |
| GUCCAGCAAUAUUACGGUCC | -3.66 ± 0.35 | -2.68 ± 0.29 |
| AAAUAGCAAUAUUACGUUAU | -3.39 ± 0.18 | -2 ± 0.15 |
| CACGAGCAAUAUUACGGAUG | -3.35 ± 0.16 | -2.47 ± 0.16 |
| UAGGAGCAAUAUUACGCGGG |  | -1.24 ± 0.21 |
| CCCAAGCAAUAUUACGUUAC | -4.13 ± 0.15 | -2.37 ± 0.13 |
| GUCUAGCAAUAUUACGACAC | -0.746 ± 0.13 | -0.011 ± 0.11 |
| UGUCAGCAAUAUUACGCGUU | -1.16 ± 0.072 | -0.631 ± 0.083 |
| ACCCAGCAAUAUUACGCGAU | -1.84 ± 0.1 | -1.47 ± 0.11 |
| CAGAAGCAAUAUUACGACAG | -0.805 ± 0.15 | -0.248 ± 0.23 |
| AGCCAGCAAUAUUACGGCUA | -2.42 ± 0.15 | -0.727 ± 0.11 |
| CCCAAGCAAUAUUACGAAAU | -3.19 ± 0.25 | -2.35 ± 0.18 |
| AGCUAGCAAUAUUACGAUCC | 0.0246 ± 0.14 | 0.559 ± 0.16 |
| AACAAGCAAUAUUACGUACU | -0.11 ± 0.05 | 0.496 ± 0.071 |

| Sequence | self-splicing fitness (ln) (30 °C) | self-splicing fitness (ln) (37 °C) |
| --- | --- | --- |
| GCUUAGCAAUAUUACGAACA | -1.38 ± 0.16 | -0.519 ± 0.19 |
| GGCGAGCAAUAUUACGCCAA |  | -2.45 ± 0.49 |
| UACGAGCAAUAUUACGUUCU | -2.38 ± 0.14 | -2.35 ± 0.16 |
| GGUAAGCAAUAUUACGUAUA | -1.77 ± 0.21 | -1.68 ± 0.26 |
| GACUAGCAAUAUUACGACUC | -0.54 ± 0.097 | 0.55 ± 0.14 |
| CCGGAGCAAUAUUACGCGCA | -2.85 ± 0.21 | -2.29 ± 0.22 |
| CUGGAGCAAUAUUACGCAGG | -3.11 ± 0.23 | -2.36 ± 0.2 |
| UUAAAGCAAUAUUACGGUGA | -0.488 ± 0.097 | 0.559 ± 0.13 |
| UUAAAGCAAUAUUACGAGGU | -4.09 ± 0.24 | -3.3 ± 0.27 |
| AGAGAGCAAUAUUACGGCUC | -3.01 ± 0.27 | -1.37 ± 0.25 |
| ACCUAGCAAUAUUACGAAGG | -2.16 ± 0.086 | -1.85 ± 0.15 |
| UCAGAGCAAUAUUACGUUAU | -2.84 ± 0.19 | -3.42 ± 0.4 |
| UUCCAGCAAUAUUACGAUGU | -3.24 ± 0.12 | -2.22 ± 0.16 |
| CUCAAGCAAUAUUACGGCCU | -4.43 ± 0.39 | -2.53 ± 0.32 |
| CGCUAGCAAUAUUACGGGAC |  | -2.63 ± 0.22 |
| UUCAAGCAAUAUUACGGUGG | -1.54 ± 0.12 | -0.439 ± 0.13 |
| CGGCAGCAAUAUUACGGGCU | -3.81 ± 0.22 | -2.16 ± 0.24 |
| GGUGAGCAAUAUUACGUUAG | -3.01 ± 0.2 | -2.83 ± 0.3 |
| AGGAAGCAAUAUUACGUGGA | -3.05 ± 0.19 | -1.16 ± 0.13 |
| GAACAGCAAUAUUACGUAGG | -2.12 ± 0.057 | -0.569 ± 0.066 |
| UUGCAGCAAUAUUACGUUAG | -1.22 ± 0.053 | -0.899 ± 0.085 |
| GGCCAGCAAUAUUACGAGAG | -3.27 ± 0.24 | -2.52 ± 0.25 |
| AGCAAGCAAUAUUACGGAUU | -1.94 ± 0.07 | -0.407 ± 0.084 |
| GGUCAGCAAUAUUACGGGGG |  | -2.15 ± 0.34 |
| GUACAGCAAUAUUACGAAUC | -2.65 ± 0.35 | -1.18 ± 0.18 |
